Tests used:
[1] = molecular target: the molecule itself; assay: native gel or EMSA; blue native PAGE, 20 ug purified CT-MRAP2 domain on Native PAGE Novex 3% to 16% Bis-Tris gels, 0 °C; blot with anti-His
[2] = molecular target: the molecule itself; assay: SDS-PAGE; purified zCT-MRAP2a, electrophoresis under denaturing conditions

B1: C-terminal domain of zebrafish MRAP2a, His-tagged (zCT-MRAP2a) (domain or fragment, UniProt F8W4H9 73-217, looked up)
chain: EAAEPYEKRMRLTSCADGLGRQRETDGRTGLSRPLLEESRSLFHCYINEEEREGGRAATDAGALTHGRSGIGNSRGQVEEVGLVVQNMVLESRAEREAALLAHFNIPNFVNSELNSALGDEDLLLGDPPIIMEEARPRCTHHIID
notes: zebrafish MRAP2a, C-terminal domain, the region from residue 73 to residue 217 encoded by the third exon; cloned by PCR from plasmid XM_021473026.1 into pet28; also called zCT-MRAP2a domain; pet 28zCT-MRAP2; source: E. coli, purified (His-tagged protein purification kit)
For B1, the “stoichiometry N” value [1] was about 2 and the “stoichiometry N” value [2] was 2.
